Results from paper PMC13186710.

What was measured:
[1] = target: Nonphosphorylated, SAG21k-bound FLAG-tagged mouse Smoothened (residues 64-674) S570C (mouse) (UniProt P56726); assay: cross-linking; disulfide trapping with 5 mM diamide, 1 h, room temperature; FLAG-SMO (4 ul of 12.5 uM) and PKA-C (4 ul of 6.25 uM) in 10 ul, 20 mM HEPES, 150 mM NaCl, 0.025% GDN, SAG21k, 1 mM ATP, 10 mM MgCl2, pH 8.0; non-reducing SDS-PAGE
[2] = target: GRK2-phosphorylated FLAG-tagged mouse Smoothened (residues 64-674) I573A F577A R580A (mouse) (UniProt P56726); assay: SPR; biotinylated SMO nanodiscs captured (Biotin CAPture kit, 250-350 RU); myr-PKA-Cα-K7C 16 nM-1 uM injected; 20 mM MOPS pH 7.0, 150 mM NaCl, 100 uM EDTA, 1 mM ATP, 10 mM MgCl2, 0.001% P20, 25 °C; Biacore 3000; steady-state analysis
[3] = target: GRK2-phosphorylated FLAG-tagged mouse Smoothened (residues 64-674), wild type (mouse) (UniProt P56726); assay: as above

Substance: Mouse PKA-C G136C in the minimal-cysteine ((−)Cys, C199A) background (enzyme)
- percent of the disulfide trapping that depends on SMO phosphorylation (against pSMO S570C) [1]: 54%

Substance: Myristoylated PKA-Cα K7C (enzyme)
- Kd [2]: 222 nM
- Kd [3]: 82 nM
